In US20250043302A1, “MUTATED HYDROXYPHENYLPYRUVATE DIOXYGENASE POLYPEPTIDE, AND CODING GENE AND USE THEREOF” (BEIJING DABEINONG BIOTECHNOLOGY CO., LTD., priority 2021, published 2025):
Where a chain is given by its changes, count along the chain named. Names may count otherwise.

B1: NtHPPD-02: nucleotide sequence encoding wild-type Nicotiana tabacum HPPD; vector DBN11750 (nucleic acid)
DNA: ATGGGGAAGCTGGAAACCGTCACTACCACCTCGGCGGCGGCTGCTGATGATTCATCGGAATTAACAACCAACTTCAAGTTGGTTGGTTTCAAAAATTTCATCAGAACAAACCCAAGGTCTGATTTCTTCTCCGTCAAGAGCTTCCACCACATTGAATTCTGGTGCGGTGACGCAACTAACACAGCGCGCCGCTTCTCATGGAGCCTAGGGATGCCAATTGCAGCTAAGAGTGATCTTTCAACAGGAAACAGCGTGCACGCCTCCTACCTCCTCCGGCCCGTAAGCGGTTCTTTACAGTTCCTGTTTACAGCACCATATTCACCTTCTATTTCGACTCCTAGTTCAGCTGCAATCCCATCTTTTTCCACATCTACACATAGGTCTTTCACTACAACACATGGACTGGGTGTTCGTGCCGTCGCCCTCGAGGTGGAGAATGCTTATACTGCCTTCAGTGCTTCTGTCTCCAGAGGCGCCAAGCCAATGTTTGAACCTGTGACAATTGATGAACAAGTAGCAATGGCTGAGGTTCATTTGTACGGCGATGTTGTGCTGCGATTTGTTTCTTATCTCAAGGACGCCGACAACCTGGTCTTCCTGCCGGGGTTTGAGGCCATGGATGAAACTGCTAGTTACAAAGAACTTGATTATGGAATACGGCGTTTGGATCATGCTGTGGGCAATGTTCCAGAACTCGGCCCGGTAGTTGATTACATCAAGAGGTTTACTGGATTTCATGAATTTGCAGAGTTTACCGCTGAAGATGTGGGAACTGCGGAAAGTGGGCTAAACTCCATGGTTCTTGCGAACAATGATGAGACTGTGCTCCTCCCTCTGAATGAGCCTGTTTATGGCACCAAAAGAAAATCTCAGATACAAACATATCTTGAGCATAATGAAGGAGCTGGGGTGCAGCACCTTGCTCTTGTTACTGAAGACATCTTTAAGACTTTGACAGAGATGAGGAAGAGAAGTGGAGTTGGAGGTTTTGAGTTCATGCCTTCCCCCCCGCCGACCTACTACAAGAATTTGAAGAACAGGGCTGGTGACGTCCTCTCAGACGAGCAGATTTTGGCTTGTGAGGAGCTTGGCATCTTGGTAGACCGGGACGACCAGGGGACGCTTCTCCAAATTTTCACAAAACCCGTCGGGGACCGCCCCACCATATTTATTGAGATCATCCAGAGGATAGGCTGCATGCTTAAAGATGGAAAAGGTCAAGTGTACCAGAAGGGTGGTTGTGGTGGGTTTGGCAAAGGAAATTTTTCTGAGCTGTTCAGAAGCATAGAAGAATATGAGAAGACACTGGAAGCAAAACAAGCAAATCAAGTTGCGGCCGCGTGA
modifications: NtHPPD-02 Nucleotide Sequence
notes: vector DBN11750
B2: NtHPPDm-F372A-F383W-02: nucleotide sequence encoding Nicotiana tabacum HPPD with F372A+F383W; vector DBN11753 (nucleic acid)
DNA: B1 DNA with T1135G, T1136C, T1169G, T1170G
modifications: NtHPPDm-F372A-F383W-02 Nucleotide Sequence
notes: vector DBN11753

Columns and labels:
Type in all cases: in vivo
[1] = test system: Arabidopsis thaliana T1 plants; test: Topramezone tolerance of transgenic Arabidopsis thaliana T1 plants (spray, bleached leaf area grade, damage score); details: 7 DAT, Table 4; for Classification and statistics of the grade of pesticide damage: Grade 0 / Classification and statistics of the grade of pesticide damage: Grade 1 / Classification and statistics of the grade of pesticide damage: Grade 2 / Classification and statistics of the grade of pesticide damage: Grade 3: number of plants; for Scores: pesticide damage score 0-100
In short: (§1)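 Read-out: per-plant damage grade 0–3 from proportion of bleached leaf area at 7 DAT (1 <50%, 2 >50%, 3 100%). Plants were T1 transformants, glufosinate-selected, plus wild-type CK, sprayed 18 days post-sowing. Rates: topramezone 25–200, isoxaflutole 35–280, mesotrione 52.5–420 g ai/ha.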

[2] = test system: Arabidopsis thaliana T1 plants; test: Isoxaflutole tolerance of transgenic Arabidopsis thaliana T1 plants (spray, bleached leaf area grade, damage score); parameters: Scores (pesticide damage): scale not given here; details: spray, Arabidopsis thaliana T1 plants; for Classification and statistics of the grade of pesticide damage: Grade 0 (number of plants) / Classification and statistics of the grade of pesticide damage: Grade 1 (number of plants) / Classification and statistics of the grade of pesticide damage: Grade 2 (number of plants) / Classification and statistics of the grade of pesticide damage: Grade 3 (number of plants): 16 plants
In short: as §1

[3] = test system: Arabidopsis thaliana T1 plants; test: Mesotrione tolerance of transgenic Arabidopsis thaliana T1 plants (spray, bleached leaf area grade, damage score); parameters: Scores: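 damage score 0-100 computed as Σ(N×S)/(T×M)×100 over grades 0-3 with higher meaning more damage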; details: Arabidopsis thaliana T1 plants; for Grade 0 (classification and statistics of the grade of pesticide damage; number of plants) / Grade 1 (classification and statistics of the grade of pesticide damage; number of plants) / Grade 2 (classification and statistics of the grade of pesticide damage; number of plants) / Grade 3 (classification and statistics of the grade of pesticide damage; number of plants): 16 plants
In short: as §1

[4] = isoxaflutole 35 g ai/ha (0.5x field concentration)
[5] = isoxaflutole 70 g ai/ha (1x field concentration)

Molecule	Classification and statistics of the grade of pesticide damage: Grade 0 ([1]; topramezone 25 g ai/ha (1×))	Classification and statistics of the grade of pesticide damage: Grade 1 ([1]; topramezone 25 g ai/ha (1×))	Classification and statistics of the grade of pesticide damage: Grade 2 ([1]; topramezone 25 g ai/ha (1×))	Classification and statistics of the grade of pesticide damage: Grade 3 ([1]; topramezone 25 g ai/ha (1×))	Classification and statistics of the grade of pesticide damage: Grade 0 ([1]; topramezone 100 g ai/ha (4×))	Classification and statistics of the grade of pesticide damage: Grade 1 ([1]; topramezone 100 g ai/ha (4×))	Classification and statistics of the grade of pesticide damage: Grade 2 ([1]; topramezone 100 g ai/ha (4×))	Classification and statistics of the grade of pesticide damage: Grade 3 ([1]; topramezone 100 g ai/ha (4×))	Scores ([1]; topramezone 25 g ai/ha (1×))	Scores ([1]; topramezone 100 g ai/ha (4×))	Resistance evaluation ([1]; topramezone 25 g ai/ha (1×))	Resistance evaluation ([1]; topramezone 100 g ai/ha (4×))	Resistance evaluation [2, 4]	Scores (pesticide damage) [2, 4]	Classification and statistics of the grade of pesticide damage: Grade 0 (number of plants) [2, 4]	Classification and statistics of the grade of pesticide damage: Grade 1 (number of plants) [2, 4]	Classification and statistics of the grade of pesticide damage: Grade 2 (number of plants) [2, 4]	Classification and statistics of the grade of pesticide damage: Grade 3 (number of plants) [2, 4]	Resistance evaluation [2, 5]	Scores (pesticide damage) [2, 5]	further results
B1	0	0	0	16	0	0	0	16	100	100	non-resistant (non-resistant plants (scores 68-100))	non-resistant (non-resistant plants (scores 68-100))	Non-resistant	100	0	0	0	16	Non-resistant	100	Classification and statistics of the grade of pesticide damage: Grade 0 (number of plants) [2, 5]: 0; Classification and statistics of the grade of pesticide damage: Grade 1 (number of plants) [2, 5]: 0; Classification and statistics of the grade of pesticide damage: Grade 2 (number of plants) [2, 5]: 0; Classification and statistics of the grade of pesticide damage: Grade 3 (number of plants) [2, 5]: 16; Resistance evaluation ([3]; mesotrione 52.5 g ai/ha): Non-resistant; Scores ([3]; mesotrione 52.5 g ai/ha): 100; Grade 0 (classification and statistics of the grade of pesticide damage; number of plants) ([3]; mesotrione 52.5 g ai/ha): 0; Grade 1 (classification and statistics of the grade of pesticide damage; number of plants) ([3]; mesotrione 52.5 g ai/ha): 0; Grade 2 (classification and statistics of the grade of pesticide damage; number of plants) ([3]; mesotrione 52.5 g ai/ha): 0; Grade 3 (classification and statistics of the grade of pesticide damage; number of plants) ([3]; mesotrione 52.5 g ai/ha): 16; Resistance evaluation ([3]; mesotrione 105 g ai/ha): Non-resistant; Scores ([3]; mesotrione 105 g ai/ha): 100; Grade 0 (classification and statistics of the grade of pesticide damage; number of plants) ([3]; mesotrione 105 g ai/ha): 0; Grade 1 (classification and statistics of the grade of pesticide damage; number of plants) ([3]; mesotrione 105 g ai/ha): 0; Grade 2 (classification and statistics of the grade of pesticide damage; number of plants) ([3]; mesotrione 105 g ai/ha): 0; Grade 3 (classification and statistics of the grade of pesticide damage; number of plants) ([3]; mesotrione 105 g ai/ha): 16
B2	2	13	1	0	0	1	13	2	31	69	moderately	non-resistant (non-resistant plants (scores 68-100))	Moderately	33	1	14	1	0	Poorly	65	Classification and statistics of the grade of pesticide damage: Grade 0 (number of plants) [2, 5]: 0; Classification and statistics of the grade of pesticide damage: Grade 1 (number of plants) [2, 5]: 3; Classification and statistics of the grade of pesticide damage: Grade 2 (number of plants) [2, 5]: 11; Classification and statistics of the grade of pesticide damage: Grade 3 (number of plants) [2, 5]: 2; Resistance evaluation ([3]; mesotrione 52.5 g ai/ha): Poorly resistant; Scores ([3]; mesotrione 52.5 g ai/ha): 35; Grade 0 (classification and statistics of the grade of pesticide damage; number of plants) ([3]; mesotrione 52.5 g ai/ha): 1; Grade 1 (classification and statistics of the grade of pesticide damage; number of plants) ([3]; mesotrione 52.5 g ai/ha): 13; Grade 2 (classification and statistics of the grade of pesticide damage; number of plants) ([3]; mesotrione 52.5 g ai/ha): 2; Grade 3 (classification and statistics of the grade of pesticide damage; number of plants) ([3]; mesotrione 52.5 g ai/ha): 0; Resistance evaluation ([3]; mesotrione 105 g ai/ha): Non-resistant; Scores ([3]; mesotrione 105 g ai/ha): 69; Grade 0 (classification and statistics of the grade of pesticide damage; number of plants) ([3]; mesotrione 105 g ai/ha): 0; Grade 1 (classification and statistics of the grade of pesticide damage; number of plants) ([3]; mesotrione 105 g ai/ha): 1; Grade 2 (classification and statistics of the grade of pesticide damage; number of plants) ([3]; mesotrione 105 g ai/ha): 13; Grade 3 (classification and statistics of the grade of pesticide damage; number of plants) ([3]; mesotrione 105 g ai/ha): 2
